Where no end group is shown, it is not given here. [ ]: non-standard residue; d: D form. pT = C[C@@H](OP(=O)(O)O)[C@H](N)C(=O)O; pS = N[C@@H](COP(=O)(O)O)C(=O)O; CF = carboxyfluorescein
Key:
Skp1-FBXW7 complex [1] = molecular target: T1, Skp1-FBXW7 complex (human, UniProt P63208 1-149; Q969H0 263-707); experiment: FP; direct titration
Skp1-FBXW7 complex [2] = molecular target: T1, Skp1-FBXW7 complex; experiment: FP; competition, unlabeled peptide

T1 sequence (P63208 1-149, chain 1 of 2): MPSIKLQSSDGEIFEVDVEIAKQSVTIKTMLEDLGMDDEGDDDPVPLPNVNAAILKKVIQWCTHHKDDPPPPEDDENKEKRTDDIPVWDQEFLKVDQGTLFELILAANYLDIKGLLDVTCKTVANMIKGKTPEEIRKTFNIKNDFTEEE
T1 sequence (Q969H0 263-707, chain 2 of 2): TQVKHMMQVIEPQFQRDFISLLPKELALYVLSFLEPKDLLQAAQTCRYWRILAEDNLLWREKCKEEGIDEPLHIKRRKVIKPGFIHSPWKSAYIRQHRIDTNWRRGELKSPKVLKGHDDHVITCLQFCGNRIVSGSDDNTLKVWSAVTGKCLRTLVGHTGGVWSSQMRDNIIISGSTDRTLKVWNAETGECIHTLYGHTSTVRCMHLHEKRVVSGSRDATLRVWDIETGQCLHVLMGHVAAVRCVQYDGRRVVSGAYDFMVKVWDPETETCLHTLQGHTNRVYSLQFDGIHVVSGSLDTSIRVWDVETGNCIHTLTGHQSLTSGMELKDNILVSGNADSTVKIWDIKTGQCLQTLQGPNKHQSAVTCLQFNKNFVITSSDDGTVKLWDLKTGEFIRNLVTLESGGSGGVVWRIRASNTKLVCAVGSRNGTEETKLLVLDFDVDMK

Kd (Skp1-FBXW7 complex [1]) | Kd (Skp1-FBXW7 complex [2]) | Binder
2.8 nM | – | {CF}-PSGLL[pT]PPQ[pS]GKKQ [carboxyfluorescein (CF) labeled CCNE peptide (CF-PSGLLpTPPQpSGKKQ)]
– | 15.9 nM | PSGLL[pT]PPQ[pS]GKKQ (also: N-terminal carboxyfluorescein on the labelled probe form) [CCNE]
